Measurements from paper PMC3230590, “Structure of the Bro1 Domain Protein BROX and Functional Analyses of the ALIX Bro1 Domain in HIV-1 Budding” (PLoS ONE, 2011).

T1: human BROX(1-401) (human, UniProt Q5VW32 1-401)
T1 construct: BROX, human, residues 1-401; lacks the 10 C-terminal residues 402-411 with the farnesylated Cys408; Residues of the vector may remain after TEV cleavage (surmise); also called wild type BROX; recombinant human BROX; not shown: His6, N-terminal, cleaved
T1 sequence (looked up): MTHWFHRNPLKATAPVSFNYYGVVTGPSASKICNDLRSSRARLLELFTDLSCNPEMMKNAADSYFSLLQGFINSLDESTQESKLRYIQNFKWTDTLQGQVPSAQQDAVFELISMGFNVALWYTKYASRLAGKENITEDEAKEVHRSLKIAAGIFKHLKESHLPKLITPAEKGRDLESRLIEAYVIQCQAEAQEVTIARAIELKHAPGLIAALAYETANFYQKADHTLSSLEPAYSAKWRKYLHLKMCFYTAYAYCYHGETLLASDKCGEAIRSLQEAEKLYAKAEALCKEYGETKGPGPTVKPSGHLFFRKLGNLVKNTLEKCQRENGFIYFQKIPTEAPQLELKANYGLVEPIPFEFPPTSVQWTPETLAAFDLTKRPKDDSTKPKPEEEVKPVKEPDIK

B1: GST-CHMP4B(205-224) (domain or fragment, UniProt Q9H444 205-224, looked up)
chain: KKKEEEDDDMKELENWAGSM
notes: also called C-terminal fragment from CHMP4B; source: E. coli, captured from crude expression lysates on an anti-GST antibody sensor chip

Columns and labels:
[1] = molecular target: CHMP4B 205-224 (Homo sapiens) (UniProt Q9H444); conditions: cited from earlier work
human BROX(1-401) = molecular target: T1, human BROX(1-401); assay: SPR; Biacore 2000; CM5 chip with amine-coupled anti-GST antibody capturing GST-CHMP4B(205-224) or GST alone from crude E. coli lysates; pure BROX proteins injected in triplicate, 1.5-fold dilution series from 400 µM; equilibrium responses fit to 1:1 isotherms; conditions: both partners purified

Row | Molecule | Kd [1] [µM] | Kd (human BROX(1-401)) [µM]
1 | ALIX Bro1 (from UniProt Q8WUM4) | 48 | 
2 | B1 |  | 98 ± 22
